Experimental data reported in US5783421.

Legend:
Factor Xa [1] = target: Factor Xa
Factor Xa [2] = experiment: modified prothrombinase complex assay (50 pM FXa, 1.35 µM prothrombin)
Factor Xa [3] = experiment: inhibition of FXa in the prothrombinase complex assay (250 pM FXa, 2.67 µM prothrombin)

Substance: naturally occurring FXa inhibitor isolated from dilute leech saliva (DLS) of Hirudo medicinalis
- IC50, generation of thrombin from prothrombin by FXa in a prothrombinase complex (Factor Xa [1]): 0.19 nM
- Ki (Factor Xa [2]): 0.12 nM
- Ki (Factor Xa [3]): 0.072 nM
